Assays:
Mouse NFS-60 cells = assay: Proliferation assay on mouse NFS-60 cells (AlamarBlue); type: cell-based; settings: for F.I. (fluorescence at 595 nm, AlamarBlue, cell viability): 72 hours
Protocol: Mouse NFS-60 cells were obtained from American Type Culture Collection (ATCC), VA, and cultured in RPMI-1640 medium supplemented with 10% fetal bovine serum (FBS), 0.05 mM 2-mercapoethanol and 62 ng/ml human macrophage colony stimulating factor (M-CSF). For proliferation assay, mouse NFS-60 cells were washed three times with RPMI-1640 medium and resuspended in RPMI-1640 medium with 10% FBS and 0.05 mM 2-mercapoethanol at a density of 1.5×10^5 cells/ml. In 96-well plates, 100 μl of cell suspension was added into each well, followed by the addition of varied concentrations of bGCSF, BLV1H12 antibody, and the immunoglobulin constructs described herein, Equal volume of PBS buffer was added into the control wells. The plates were incubated at 37° C. in a 5% CO2 incubator for 72 hours. Cells were then treated with AlamarBlue (Invitrogen) ( 1/10 volume of cell suspension) for 4 hours at 37° C. Fluorescence at 595 nm for each well was read to indicate the cell viability.

mice neutrophils = assay: Neutrophil counts in mice, 10th day after injection; type: in vivo; settings: blood stained and counted at the 10th day post-injection
Protocol: On the 10th day after injection of BLV1H12-bGCSF fusion antibodies into mice for PK study, blood samples were drawn from the mice and stained using the Diff Quick Staining Kit (Thermo Fisher Scientific, IL). Neutrophils and white blood cells were counted under microscope and the percentages of neutrophils were analyzed. FIGS. 12A-12B and Table 12 show proliferative activities of BLV1H12-bGCSF fusion antibodies on mice neutrophils that are blood stained and counted at the 10th day post-injection.

[1] = Pharmacokinetics in mice (ELISA of blood samples); type: in vivo; settings: 70 μg injected, BALB/c mice
Protocol: For PK study in mice, 70 μg of the immunoglobulin constructs described herein were injected into 3 BALB/c mice per group. Blood samples were drawn from time 0 to 14 days with extended intervals and analyzed by ELISA using anti-human IgG Fc antibody with horseradish peroxidase (HRP) labeled (KPL) and anti-6×His antibody (“6×His” disclosed as SEQ ID NO: 511) with HRP labeled (Clontech). Data were normalized by taking maximal concentration at the first time point (30 min).

Parental U2OS = assay: Flow cytometry binding to parental U2OS cells; settings: cell culture supernatant
Protocol: Briefly, a cell line expressing functionally validated CXCR1 derived from U2OS cells was obtained from DiscoveRx and cultured per manufacturer's instructions (Cat #93-0226C3, DiscoveRx Corporation, Freemont, Calif.). The parental cell line U2OS was obtained from ATCC and cultured under the same conditions as the CXCR1 cells. Cell culture supernatants from Example 2 above were then tested for binding to cells by flow cytometry. The adherent U2OS or CXCR1-U2OS cells were dissociated with Accutase (Innovative Cell Technologies, Inc., San Diego, Calif.), neutralized with an equal volume of media containing 10% serum, centrifuged at 1000 g, and resuspended in PBS with 2% BSA. Next, cells were dispensed into microtiter plates to achieve between 30,000 to 300,000 cells per well, centrifuged again, and resuspended in cell culture supernatant containing expressed IgG, or a dilution of IgG-containing cell culture supernatant. A fluorescent-conjugated anti-Human Fc antibody was used to detect binding of the expressed BLV1H12-IL8 fusion proteins to cells.

GLP-1 receptor (GLP-1R) = target: T1, GLP-1 receptor (GLP-1R) (Homo sapiens, UniProt P43220); assay: GLP-1R activation, cAMP responsive luciferase reporter in HEK293 cells; type: cell-based; settings: HEK293 cells expressing GLP-1R, 24 h
T1 construct: expressed in transfected cells; host or cells: HEK293 (with cAMP responsive luciferase reporter gene)
Protocol: HEK293 cells expressing surface GLP-1R and cAMP responsive luciferase reporter gene were seeded in 384 well plates at a density of 5000 cells per well. […] Subsequently, luciferase assay was performed using One-Glo luciferase reagent according manufacture's instruction (Promega).
HEK293 cells expressing surface GLP-1R and cAMP responsive luciferase reporter gene were seeded in 384 well plates at a density of 5000 cells per well. After 24 h incubation at 37° C. with 5% CO2, cells were treated with various concentrations of peptides and BLV1H12-GLP-1 clip fusion proteins and incubated for another 24 h. Subsequently, luciferase assay was performed using One-Glo luciferase reagent according manufacture's instruction (Promega).

Human mPB CD34+ cells = assay: Proliferative activity on human granulocyte progenitors (flow cytometry); type: cell-based; settings: for Number of CD45RA-CD41-: 7 days, flow cytometry
Protocol: Human mPB CD34^+ cells were purchased from AllCells. Cells were resuspended in HSC expansion medium (StemSpan SFEM, StemCell Technologies) supplemented with 1× antibiotics and the following recombinant human cytokines: thrombopoietin, IL6, Flt3 ligand, and stem cell factor (100 ng/mL, R & D Systems), then plated in 96-well plates (1000 cells per well), with varied concentrations of BLV1H12-bGCSF fusion antibodies. Cells were cultured for 7 days at 37° C. in a 5% CO2 incubator, then analyzed by flow cytometry to measure cell number and expression of CD45ra and CD41. Cells were stained in staining medium (HBSS supplemented with 2% FBS and 2 mM EDTA) at 4° C. for 1 h with PECy7 anti-CD45ra and eFluor 450 anti-CD41 (eBiosciences), then washed with staining medium and analyzed. Multicolor analysis for cell phenotyping was performed on a LSR II flow cytometer (Becton Dickinson). FIGS. 10A-10E and Tables 9-10 show the human granulocyte progenitor cell proliferative activities of the Ab-GCSF fusion antibodies.

T1 sequence (P43220 24-463, species assumed): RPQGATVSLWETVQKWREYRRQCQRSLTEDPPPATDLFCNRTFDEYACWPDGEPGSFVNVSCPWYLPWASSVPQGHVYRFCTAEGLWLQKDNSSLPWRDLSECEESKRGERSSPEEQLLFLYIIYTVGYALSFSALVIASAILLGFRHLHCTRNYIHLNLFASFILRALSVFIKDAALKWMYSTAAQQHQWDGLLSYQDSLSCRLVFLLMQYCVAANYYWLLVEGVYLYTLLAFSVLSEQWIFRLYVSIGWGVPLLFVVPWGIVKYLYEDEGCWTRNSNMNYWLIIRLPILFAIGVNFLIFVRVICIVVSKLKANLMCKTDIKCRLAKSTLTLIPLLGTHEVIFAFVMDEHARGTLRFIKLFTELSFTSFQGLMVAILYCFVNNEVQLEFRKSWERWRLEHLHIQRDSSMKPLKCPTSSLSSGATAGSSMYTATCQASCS

B1: Ab: bovine BLV1H12 antibody with ultralong CDR3, no insertion; scaffold of the fusions and control (antibody)
heavy: QVQLRESGPSLVKPSQTLSLTCTASGFSLSDKAVGWVRQAPGKALEWLGSIDTGGNTGYNPGLKSRLSITKDNSKSQVSLSVSSVTTEDSATYYCTSVHQETKKYQSCPDGYRERSDCSNRPACGTSDCCRVSVFGNCLTTLPVSYSYTYNYEWHVDVWGQGLLVTVSS
light: QAVLNQPSSVSGSLGQRVSITCSGSSSNVGNGYVSWYQLIPGSAPRTLIYGDTSRASGVPDRFSGSRSGNTATLTISSLQAEDEADYFCASAEDSSSNAVFGSGTTLTVLGQPKSPPSVTLFPPSTEELNGNKATLVCLISDFYPGSVTVVWKADGSTITRNVETTRASKQSNSKYAASSYLSLTSSDWKSKGSYSCEVTHEGSTVTKTVKPSECS
For B1, the “proliferative activity on mouse NFS-60 cells” value (Mouse NFS-60 cells) was “lack of proliferative activity”, the “F.I. (fluorescence at 595 nm, AlamarBlue, cell viability)” value (Mouse NFS-60 cells; 0.45725 ng/mL) was 1040 and the “F.I. (fluorescence at 595 nm, AlamarBlue, cell viability)” value (Mouse NFS-60 cells; 1.37174 ng/mL) was 1010. The “F.I. (fluorescence at 595 nm, AlamarBlue, cell viability)” value (Mouse NFS-60 cells; 4.11523 ng/mL) was 983.3, the “F.I. (fluorescence at 595 nm, AlamarBlue, cell viability)” value (Mouse NFS-60 cells; 12.34568 ng/mL) was 971.8 and the “F.I. (fluorescence at 595 nm, AlamarBlue, cell viability)” value (Mouse NFS-60 cells; 37.03704 ng/mL) was 960.5. The “F.I. (fluorescence at 595 nm, AlamarBlue, cell viability)” value (Mouse NFS-60 cells; 111.11111 ng/mL) was 991.83, the “F.I. (fluorescence at 595 nm, AlamarBlue, cell viability)” value (Mouse NFS-60 cells; 333.33333 ng/mL) was 964.798 and the “Percentage of Neutrophil” value (mice neutrophils) was 18.81. For the same molecule, the “Percentage (blood level normalized to first time point, 30 min)” value ([1]; day 0.021) was 100.00%, the “Percentage (blood level normalized to first time point, 30 min)” value ([1]; day 0.042) was 106.09% and the “Percentage (blood level normalized to first time point, 30 min)” value ([1]; day 0.083) was 95.88%. The “Percentage (blood level normalized to first time point, 30 min)” value ([1]; day 0.125) was 86.54%, the “Percentage (blood level normalized to first time point, 30 min)” value ([1]; day 0.250) was 74.26% and the “Percentage (blood level normalized to first time point, 30 min)” value ([1]; day 1.000) was 52.43%. The “Percentage (blood level normalized to first time point, 30 min)” value ([1]; day 2.000) was 39.46%, the “Percentage (blood level normalized to first time point, 30 min)” value ([1]; day 3.000) was 36.97% and the “Percentage (blood level normalized to first time point, 30 min)” value ([1]; day 8.000) was 45.44%. For the same molecule, the “Percentage (blood level normalized to first time point, 30 min)” value ([1]; day 10.000) was 40.98%, the “Percentage (blood level normalized to first time point, 30 min)” value ([1]; day 14.000) was 51.96% and the “Median Arbitrary Fluorescence Units (IgG binding)” value (Parental U2OS) was 4 AFU. For the same molecule, the “RLU (cAMP responsive luciferase reporter)” value (from here on “RLU”) (GLP-1 receptor (GLP-1R); 1.26953 nM) was 5200 RLU, the “RLU” value (GLP-1 receptor (GLP-1R); 2.53906 nM) was 5000 RLU and the “RLU” value (GLP-1 receptor (GLP-1R); 5.07813 nM) was 5600 RLU. For the same molecule, the “RLU” value (GLP-1 receptor (GLP-1R); 10.15625 nM) was 5500 RLU, the “RLU” value (GLP-1 receptor (GLP-1R); 20.3125 nM) was 5380 RLU and the “RLU” value (GLP-1 receptor (GLP-1R); 40.625 nM) was 4600 RLU. For the same molecule, the “RLU” value (GLP-1 receptor (GLP-1R); 81.25 nM) was 6140 RLU, the “RLU” value (GLP-1 receptor (GLP-1R); 162.5 nM) was 5760 RLU and the “RLU” value (GLP-1 receptor (GLP-1R); 325 nM) was 5600 RLU. For the same molecule, the “RLU” value (GLP-1 receptor (GLP-1R); 650 nM) was 5800 RLU, the “RLU” value (GLP-1 receptor (GLP-1R); 1300 nM) was 14000 RLU and the “proliferative activity on human granulocyte progenitor cells” value (Human mPB CD34+ cells) was “lack of proliferative activity”. The “Number of CD45RA-CD41-” value (Human mPB CD34+ cells; 0.28959 ng/mL) was 3666, the “Number of CD45RA-CD41-” value (Human mPB CD34+ cells; 0.86877 ng/mL) was 3839 and the “Number of CD45RA-CD41-” value (Human mPB CD34+ cells; 2.60631 ng/mL) was 3852. The “Number of CD45RA-CD41-” value (Human mPB CD34+ cells; 23.45679 ng/mL) was 3519, the “Number of CD45RA-CD41-” value (Human mPB CD34+ cells; 70.37037 ng/mL) was 3541 and the “Number of CD45RA-CD41-” value (Human mPB CD34+ cells; 211.11111 ng/mL) was 3606. The “Number of CD45RA-CD41-” value (Human mPB CD34+ cells; 5700 ng/mL) was 4100.

— patent US10774132B2, “Ultralong complementarity determining regions and uses thereof” (THE SCRIPPS RESEARCH INSTITUTE, priority 2012, dated 2020)
